These results are taken from PMC10563079 (Molecules, 2023).

Where two headings read alike, the source gives them in different places. Bridge positions count the residues as written; N and C are the ends. Ends that are not written are not given here. Peptide text beside a SMILES is read from it.

For test [1], the target named is T1, sPHGDH (1-307) (Homo sapiens, UniProt O43175).
T1 construct: the truncated version of PHGDH (sPHGDH, 1-307); made in house
T1 sequence (O43175 1-307): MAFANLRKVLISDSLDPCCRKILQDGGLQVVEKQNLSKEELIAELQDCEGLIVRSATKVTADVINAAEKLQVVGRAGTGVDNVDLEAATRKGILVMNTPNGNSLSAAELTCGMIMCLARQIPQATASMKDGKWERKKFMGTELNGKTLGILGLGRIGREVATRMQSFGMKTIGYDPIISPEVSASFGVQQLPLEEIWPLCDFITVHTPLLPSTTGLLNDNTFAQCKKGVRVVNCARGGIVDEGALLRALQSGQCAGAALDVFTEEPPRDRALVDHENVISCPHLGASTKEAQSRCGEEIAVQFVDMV
The experiment in a line: sPHGDH enzyme activity assay (NADH fluorescence). In kind it is biochemical. As to conditions: for Inhibition Rate (%): peptide concentration of 50 µM; for Inhibition Rate (%) / inhibitory activity on sPHGDH (in words): sPHGDH. The procedure:
(§1) PHGDH activity in the presence of peptides was measured in 96-well plates (100 μL per well) at 25 °C, through monitoring the NADH fluorescence (excitation at 360 nm and emission at 460 nm) over time. PAST1 and its substrate glutamate were also included in order to prevent product inhibition. In the enzyme assays, protein expression and purification, including the truncated version of PHGDH (sPHGDH, 1-307), the full-length PHGDH (1-533), and PAST1, were carried out as described in our previous papers. To evaluate the effects of peptides on enzyme activity, the peptides were pre-incubated with enzyme samples (sPHGDH 453.3 nM or PHGDH 30.9 nM) in the assay buffer (HEPES 50 mM, pH 7.5, 10 mM MgCl2, and 1 mM EDTA) for 12 h. Then, 1.98 μM PAST1, 1 mM NAD^+, and 30 mM glutamate were added and pre-incubated for 10 min before initiating the enzyme reaction via the addition of the substrate (1 mM 3-PG). Fluorescence signals were recorded for 3 min with the kinetics-reading mode of the Biotek plate reader (Synergy). IC50 values were obtained through fitting the data using a three-parameter Hill model of the graph of log dose against the percentage inhibition from three repeated experiments. For those peptides containing two disulfide bonds, a second step of oxidation reaction was carried out to generate the second disulfide pair. […] The purified Acm-protected peptide was then treated with iodine (I2, 1 wt% in MeOH), dropwise under acidic conditions until the solution became brown.

The target of test [2] is T2, full-length PHGDH (1-533) (Homo sapiens, UniProt O43175).
T2 construct: the full-length PHGDH (1-533); made in house
T2 sequence (O43175 1-533): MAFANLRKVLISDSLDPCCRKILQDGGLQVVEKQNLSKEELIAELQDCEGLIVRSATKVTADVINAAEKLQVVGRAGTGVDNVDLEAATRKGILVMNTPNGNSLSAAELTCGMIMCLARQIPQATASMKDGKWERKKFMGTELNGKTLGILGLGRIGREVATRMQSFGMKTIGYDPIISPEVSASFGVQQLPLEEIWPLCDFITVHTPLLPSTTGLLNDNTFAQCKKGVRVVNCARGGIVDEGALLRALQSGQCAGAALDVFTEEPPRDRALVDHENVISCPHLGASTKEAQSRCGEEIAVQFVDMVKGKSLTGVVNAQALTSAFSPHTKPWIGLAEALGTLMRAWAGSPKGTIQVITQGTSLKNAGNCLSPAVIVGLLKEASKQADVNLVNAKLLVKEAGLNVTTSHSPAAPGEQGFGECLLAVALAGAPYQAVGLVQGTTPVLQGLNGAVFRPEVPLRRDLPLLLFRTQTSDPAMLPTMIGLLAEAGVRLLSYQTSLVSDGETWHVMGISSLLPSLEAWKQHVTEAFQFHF
The experiment in a line: full-length PHGDH enzyme activity assay (NADH fluorescence). In kind it is biochemical. The method, then:
as §1

Test [3] concerns the target truncated version of PHGDH (sPHGDH, 1-307) (human) (UniProt O43175).
The mark [4] stands for this setting: read-out: IC50 value (μM), full-length PHGDH activity.

“C1TPQA TLSMK NGSWQ EKKC19 (CTPQATLSMKNGSWQEKKC; disulfide 1-19; not fully specified (N-terminus); printed as C_1_TPQA TLSMK NGSWQ EKKC_19_) [Cyc1-10, cyc1-9 with added A7L]”: in test [1], the “Inhibition Rate (%)” value is “None” and the “inhibitory activity on sPHGDH (in words)” value was “inactive”.

For the molecule “C1TPQA TAC8MK DGKWC15 WKKC19 (CTPQATACMKDGKWCWKKC; disulfide 1-19, 8-15; not fully specified (N-terminus); printed as C_1_TPQA TAC_8_MK DGKWC_15_ WKKC_19_) [Cyc2-5, cyc2-1 with R16W]”, the “Inhibition Rate (%)” value in test [1] is listed as 27%.

Regarding `CSCC[C@@H]1NC(=O)[C@@H]2CSSC[C@H](NC(=O)[C@H](Cc3c[nH]c4ccccc34)NC(=O)[C@H](CCCCN)NC(=O)CNC(=O)[C@H](CC(=O)O)NC(=O)[C@H](CC(C)C)NC1=O)C(=O)N[C@@H](CCCNC(=N)N)C(=O)N[C@@H](CCCCN)C(=O)N[C@@H](CCCCN)C(=O)N[C@H](C(=O)O)CSSC[C@H](NC(C)=O)C(=O)N[C@@H]([C@@H](C)O)C(=O)N1CCC[C@H]1C(=O)N[C@@H](CCC(N)=O)C(=O)N[C@@H](C)C(=O)N[C@@H]([C@@H](C)O)C(=O)N[C@@H](C)C(=O)N2` [Cyc2-2, C1TPQA TAC8ML DGKWC15 RKKC19] (Ac-CTPQATACMLDGKWCRKKC-OH; disulfide 1-19, 8-15), the IC50 (commonly the concentration at which inhibition is half-maximal) was 32.9 ± 4 µM in test [2] (IC50 value (μM), full-length PHGDH activity) and 9.4 ± 1.5 µM in test [1].

As for “C1TPQA TAC8MW DGKWC15 RKKC19 (CTPQATACMWDGKWCRKKC; disulfide 1-19, 8-15; not fully specified (N-terminus); printed as C_1_TPQA TAC_8_MW DGKWC_15_ RKKC_19_) [Cyc2-4, cyc2-1 with K10W]”, in test [1], the “Inhibition Rate (%)” value turned out to be 44%.

In the case of “C1TPQA TESML RGKWE EKKC19 (CTPQATESMLRGKWEEKKC; disulfide 1-19; not fully specified (N-terminus); printed as C_1_TPQA TESML RGKWE EKKC_19_) [Cyc1-4, single disulfide cyclic peptide with A7E and D11R]”, in test [1], the “Inhibition Rate (%)” value is reported as “None” and the “inhibitory activity on sPHGDH (in words)” value was “largely decreased or abolished the activity”.

For “C1TPQA TKSML DGKWE EKKC19 (CTPQATKSMLDGKWEEKKC; disulfide 1-19; not fully specified (N-terminus); printed as C_1_TPQA TKSML DGKWE EKKC_19_) [Cyc1-3, single disulfide cyclic peptide with substitution A7K]”, in test [1], the “Inhibition Rate (%)” value came to 19% and the “inhibitory activity on sPHGDH (in words)” value is listed as “largely decreased or abolished the activity”.

With `CSCC[C@@H]1NC(=O)[C@H](CO)NC(=O)[C@H](C)NC(=O)[C@H]([C@@H](C)O)NC(=O)[C@H](C)NC(=O)[C@H](CCC(N)=O)NC(=O)[C@@H]2CCCN2C(=O)[C@H]([C@@H](C)O)NC(=O)[C@@H](NC(C)=O)CSSC[C@@H](C(=O)O)NC(=O)[C@H](CCCCN)NC(=O)[C@H](CCCCN)NC(=O)[C@H](CCC(=O)O)NC(=O)[C@H](CCC(N)=O)NC(=O)[C@H](Cc2c[nH]c3ccccc23)NC(=O)[C@H](CO)NC(=O)CNC(=O)[C@H](CC(N)=O)NC(=O)[C@H](CCCCN)NC1=O` [Cyc1-9, C1TPQA TASMK NGSWQ EKKC19] (Ac-CTPQATASMKNGSWQEKKC-OH; disulfide 1-19), the IC50 in test [2] (setting [4]) worked out at 56.1 ± 3.4 µM.

Regarding `CSCC[C@@H]1NC(=O)[C@H](CO)NC(=O)[C@H](CC(C)C)NC(=O)[C@H]([C@@H](C)O)NC(=O)[C@H](C)NC(=O)[C@H](CCC(N)=O)NC(=O)[C@@H]2CCCN2C(=O)[C@H]([C@@H](C)O)NC(=O)[C@@H](NC(C)=O)CSSC[C@@H](C(=O)O)NC(=O)[C@H](CCCCN)NC(=O)[C@H](CCCCN)NC(=O)[C@H](CCC(=O)O)NC(=O)[C@H](CCC(=O)O)NC(=O)[C@H](Cc2c[nH]c3ccccc23)NC(=O)[C@H](CCCCN)NC(=O)CNC(=O)[C@H](CC(=O)O)NC(=O)[C@H](CCCCN)NC1=O` [Cyc1-2, C1TPQA TLSMK DGKWE EKKC19] (Ac-CTPQATLSMKDGKWEEKKC-OH; disulfide 1-19), in test [2] (setting [4]), the IC50 turned out to be 20.1 ± 2.6 µM.

Regarding “C1TPQA TASMK DGKWE RKKC19 (CTPQATASMKDGKWERKKC; disulfide 1-19; not fully specified (N-terminus); printed as C_1_TPQATASMKDGKWERKKC_19_) [Cyc1-1, head-to-tail disulfide-cyclized peptide (C1-C19) from the PHGDH dimerization loop]”, in test [1], the “Inhibition Rate (%)” value came to 40% and the “inhibitory activity on sPHGDH (in words)” value was “limited activity”.

As for “C1TPQA TLLMK DGKWE EKKC19 (CTPQATLLMKDGKWEEKKC; disulfide 1-19; not fully specified (N-terminus); printed as C_1_TPQA TLLMK DGKWE EKKC_19_) [Cyc1-8, cyc1-2 with substitution S8L]”, in test [1], the “Inhibition Rate (%)” value is listed as “None” and the “inhibitory activity on sPHGDH (in words)” value is “completely eliminated the activity”.

B1: cyclic peptide cyc1-3 (peptide)
peptide: CTPQATKSMLDGKWEEKKC
modifications: disulfide 1-19; not fully specified (N-terminus); printed as C_1_TPQA TKSML DGKWE EKKC_19_
In test [3], B1 returned an Inhibition rate of sPHGDH enzyme activity (NADH fluorescence) at 50 µM peptide; the pair blocked is the sPHGDH homo-dimer (m1+m1) of 19%.

B2: double constrained cyclic peptide cyc2-4 (peptide)
peptide: CTPQATACMWDGKWCRKKC
modifications: disulfide 1-19, 8-15; not fully specified (N-terminus); printed as C_1_TPQA TAC_8_MW DGKWC_15_ RKKC_19_
In turn, B2 gave an Inhibition rate of sPHGDH enzyme activity (NADH fluorescence) at 50 µM peptide; the pair blocked is the sPHGDH homo-dimer (m1+m1) in test [3] of 44%.

B3: cyclic peptide cyc1-7 (peptide)
peptide: CTPQATLTMKDGKWEEKKC
modifications: disulfide 1-19; not fully specified (N-terminus); printed as C_1_TPQA TLTMK DGKWE EKKC_19_
B3 gave an IC50 of inhibition of sPHGDH enzyme activity (NADH fluorescence); the pair blocked is the sPHGDH homo-dimer (m1+m1) in test [3] of 5.6 µM.

B4: double constrained cyclic peptide cyc2-5 (peptide)
peptide: CTPQATACMKDGKWCWKKC
modifications: disulfide 1-19, 8-15; not fully specified (N-terminus); printed as C_1_TPQA TAC_8_MK DGKWC_15_ WKKC_19_
For the molecule B4, the Inhibition rate of sPHGDH enzyme activity (NADH fluorescence) at 50 µM peptide; the pair blocked is the sPHGDH homo-dimer (m1+m1) in test [3] amounted to 27%.

B5: double constrained cyclic peptide cyc2-6 (peptide)
peptide: CTPQATACMLDGKWCEKKC
modifications: disulfide 1-19, 8-15; not fully specified (N-terminus); printed as C_1_TPQA TAC_8_ML DGKWC_15_ EKKC_19_
As for B5, the IC50 of inhibition of sPHGDH enzyme activity (NADH fluorescence); the pair blocked is the sPHGDH homo-dimer (m1+m1) in test [3] was found to be 15 µM.

B6: double constrained cyclic peptide cyc2-2 (peptide)
peptide: CTPQATACMLDGKWCRKKC
modifications: disulfide 1-19, 8-15; not fully specified (N-terminus); printed as C_1_TPQA TAC_8_ML DGKWC_15_ RKKC_19_
B6 registered an IC50 of inhibition of sPHGDH enzyme activity (NADH fluorescence); the pair blocked is the sPHGDH homo-dimer (m1+m1) in test [3] of 9.4 µM.

B7: cyclic peptide cyc1-1 (peptide)
peptide: CTPQATASMKDGKWERKKC
modifications: disulfide 1-19; not fully specified (N-terminus); printed as C_1_TPQATASMKDGKWERKKC_19_
The molecule B7 came in with an Inhibition rate of sPHGDH enzyme activity (NADH fluorescence) at 50 µM peptide; the pair blocked is the sPHGDH homo-dimer (m1+m1) in test [3] of 40%.
